# Laboratory results reported in PMC13123425, “A mutant complement factor H (W1183R) enhances proteolytic cleavage of von Willebrand factor by ADAMTS-13 under shear” (Journal of thrombosis and haemostasis : JTH, 2025).
# Molecular target: purified human recombinant von Willebrand factor (multimeric) (human, UniProt P04275 764-2813)
# Assay: cell-based or functional assay
binder,measurement,value
"human recombinant W1183R complement factor H (natural protein, UniProt P08603 19-1231, looked up) EDCNELPPRRNTEILTGSWSDQTYPEGTQAIYKCRPGYRSLGNVIMVCRKGEWVALNPLRKCQKRPCGHPGDTPFGTFTLTGGNVFEYGVKAVYTCNEGYQLLGEINYRECDTDGWTNDIPICEVVKCLPVTAPENGKIVSSAMEPDREYHFGQAVRFVCNSGYKIEGDEEMHCSDDGFWSKEKPKCVEISCKSPDVINGSPISQKIIYKENERFQYKCNMGYEYSERGDAVCTESGWRPLPSCEEKSCDNPYIPNGDYSPLRIKHRTGDEITYQCRNGFYPATRGNTAKCTSTGWIPAPRCTLKPCDYPDIKHGGLYHENMRRPYFPVAVGKYYSYYCDEHFETPSGSYWDHIHCTQDGWSPAVPCLRKCYFPYLENGYNQNYGRKFVQGKSIDVACHPGYALPKAQTTVTCMENGWSPTPRCIRVKTCSKSSIDIENGFISESQYTYALKEKAKYQCKLGYVTADGETSGSITCGKDGWSAQPTCIKSCDIPVFMNARTKNDFTWFKLNDTLDYECHDGYESNTGSTTGSIVCGYNGWSDLPICYERECELPKIDVHLVPDRKKDQYKVGEVLKFSCKPGFTIVGPNSVQCYHFGLSPDLPICKEQVQSCGPPPELLNGNVKEKTKEEYGHSEVVEYYCNPRFLMKGPNKIQCVDGEWTTLPVCIVEESTCGDIPELEHGWAQLSSPPYYYGDSVEFNCSESFTMIGHRSITCIHGVWTQLPQCVAIDKLKKCKSSNLIILEEHLKNKKEFDHNSNIRYRCRGKEGWIHTVCINGRWDPEVNCSMAQIQLCPPPPQIPNSHNMTTTLNYRDGEKVSVLCQENYLIQEGEEITCKDGRWQSIPLCVEKIPCSQPPQIEHGTINSSRSSQESYAHGTKLSYTCEGGFRISEENETTCYMGKWSSPPQCEGLPCKSPPEISHGVVAHMSDSYQYGEEVTYKCFEGFGIDGPAIAKCLGEKWSHPPSCIKTDCLSLPSFENAIPMGEKKDVYKAGEQVTYTCATYYKMDGASNVTCINSRWTGRPTCRDTSCVNPPTVQNAYIVSRQMSKYPSGERVRYQCRSPYEMFGDEEVMCLNGNWTEPPQCKDSTGKCGPPPPIDNGDITSFPLSVYAPASSVEYQCQNLYQLEGNKRITCRNGQWSEPPKCLHPCVISREIMENYNIALRRTAKQKLYSRTGESVEFVCKRGYRLSSRSHTLRTTCWDGKLEYPTCAKR","cleavage product (~350 kD band) of multimeric VWF by recombinant ADAMTS-13 under vortexing-induced shear, with 0–2 μM W1183R-CFH",~2 fold
